Data reported in patent publication US20100004182A1 (MARUHA, published 2010).

Tests used:
[1] = target: xanthine oxidase (XO) of cow's milk (from Wako Pure Chemical) (cow, UniProt P80457 2-1332); test: cell-based or functional assay
[2] = target: xanthine oxidase (XO) from butter milk (from Wako Pure Chemical) (UniProt P80457 2-1332); test: cell-based or functional assay
Sequence of xanthine oxidase (XO) from butter milk (from Wako Pure Chemical) (P80457 2-1332 limits assumed): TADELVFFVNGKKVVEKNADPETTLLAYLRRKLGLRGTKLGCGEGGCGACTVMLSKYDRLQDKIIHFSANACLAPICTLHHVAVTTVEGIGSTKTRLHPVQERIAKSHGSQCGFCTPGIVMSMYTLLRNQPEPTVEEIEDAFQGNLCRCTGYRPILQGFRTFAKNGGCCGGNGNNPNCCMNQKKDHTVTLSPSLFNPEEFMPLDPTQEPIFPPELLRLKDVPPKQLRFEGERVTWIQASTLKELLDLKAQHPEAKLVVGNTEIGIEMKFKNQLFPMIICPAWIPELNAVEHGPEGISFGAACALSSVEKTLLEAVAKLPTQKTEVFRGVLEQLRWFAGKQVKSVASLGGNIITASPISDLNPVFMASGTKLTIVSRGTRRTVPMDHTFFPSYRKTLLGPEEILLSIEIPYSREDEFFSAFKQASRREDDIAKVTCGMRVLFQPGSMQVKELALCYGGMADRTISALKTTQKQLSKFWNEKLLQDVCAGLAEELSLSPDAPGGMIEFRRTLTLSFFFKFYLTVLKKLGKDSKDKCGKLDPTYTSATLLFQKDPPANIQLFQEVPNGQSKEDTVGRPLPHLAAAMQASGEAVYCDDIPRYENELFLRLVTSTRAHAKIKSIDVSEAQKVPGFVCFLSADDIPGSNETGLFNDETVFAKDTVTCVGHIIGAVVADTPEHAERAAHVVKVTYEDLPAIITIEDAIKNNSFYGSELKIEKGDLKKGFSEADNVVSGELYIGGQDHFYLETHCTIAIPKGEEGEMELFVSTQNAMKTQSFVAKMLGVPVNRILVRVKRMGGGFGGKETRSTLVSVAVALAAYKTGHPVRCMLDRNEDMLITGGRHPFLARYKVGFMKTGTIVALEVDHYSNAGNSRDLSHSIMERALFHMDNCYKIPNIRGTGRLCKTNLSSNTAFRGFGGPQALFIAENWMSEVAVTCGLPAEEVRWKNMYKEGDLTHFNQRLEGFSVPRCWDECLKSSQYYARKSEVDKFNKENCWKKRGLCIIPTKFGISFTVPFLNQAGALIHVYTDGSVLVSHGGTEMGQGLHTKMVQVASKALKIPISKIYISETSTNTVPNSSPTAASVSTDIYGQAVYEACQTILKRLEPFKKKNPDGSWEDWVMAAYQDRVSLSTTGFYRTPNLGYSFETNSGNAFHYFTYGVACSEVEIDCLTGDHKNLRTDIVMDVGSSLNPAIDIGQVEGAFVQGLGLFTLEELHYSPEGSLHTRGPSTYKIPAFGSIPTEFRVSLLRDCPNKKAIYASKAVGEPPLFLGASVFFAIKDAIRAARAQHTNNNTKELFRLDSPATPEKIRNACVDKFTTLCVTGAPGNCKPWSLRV

Sequence of xanthine oxidase (XO) of cow's milk (from Wako Pure Chemical) (P80457 2-1332 limits assumed): as above

| Binder | 50% inhibitory concentration (IC50) of xanthine oxidase activity (uric acid produced from xanthine, OD at 292 nm) [1] | 50% inhibitory concentration (IC50) of xanthine oxidase activity (uric acid produced from xanthine, OD at 292 nm) [2] |
| --- | --- | --- |
| LD [peptide LD] | 1700 µM |  |
| DN [peptide DN] | 500 µM |  |

Now from value to binder:

| 50% inhibitory concentration (IC50) of xanthine oxidase activity (uric acid produced from xanthine, OD at 292 nm) [1] | 50% inhibitory concentration (IC50) of xanthine oxidase activity (uric acid produced from xanthine, OD at 292 nm) [2] | Binder |
| --- | --- | --- |
| 750 µM |  | LDNY [peptide LDNY] |
| 1200 µM |  | YLDN [peptide YLDN] |
|  | 3700 µM | YINY [polypeptide having SEQ ID No. 2 (YINY)] |
